Experimental findings from PMC10397247 are described below.

One assay has as its target T1, O8-bH.
T1 chain: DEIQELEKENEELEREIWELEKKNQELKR
In words: two-hybrid library CCNG1.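 Also: natural log of median RNA to DNA barcode read ratio; higher means stronger binding.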

The target in another assay is T2, O9-bH.
T2 chain: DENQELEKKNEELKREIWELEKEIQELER
In words: two-hybrid library CCNG1.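 Also: natural log of median RNA to DNA barcode read ratio; higher means stronger binding.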

For the next assay, the target named is T3, 4H72-bH.
T3 chain: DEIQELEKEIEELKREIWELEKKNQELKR
Nature of the assay: two-hybrid library CCNG1.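 Also: natural log of median RNA to DNA barcode read ratio; higher means stronger binding.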

For the next assay, the target named is T4, 4H797-bH.
T4 chain: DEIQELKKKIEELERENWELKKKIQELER
In words: two-hybrid library CCNG1.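 Also: natural log of median RNA to DNA barcode read ratio; higher means stronger binding.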

A further assay has as its target T5, 4H568-bH.
T5 chain: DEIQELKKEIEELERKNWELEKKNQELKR
Nature of the assay: two-hybrid library CCNG1.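 Also: natural log of median RNA to DNA barcode read ratio; higher means stronger binding.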

The target of another assay is T6, 4H454-bH.
T6 chain: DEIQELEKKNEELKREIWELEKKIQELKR
Nature of the assay: two-hybrid library CCNG1.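 Also: natural log of median RNA to DNA barcode read ratio; higher means stronger binding.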

A further assay concerns the target T7, 4H3843-bH.
T7 chain: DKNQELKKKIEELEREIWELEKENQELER
Nature of the assay: two-hybrid library CCNG1.

The next assay has as its target T8, 4H4001-bH.
T8 chain: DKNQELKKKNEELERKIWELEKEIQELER
Nature of the assay: two-hybrid library CCNG1.

The target in another assay is T9, 4H607-bH.
T9 chain: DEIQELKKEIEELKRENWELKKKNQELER
In words: two-hybrid library CCNG1.

In a further assay the target is T10, 4H918-bH.
T10 chain: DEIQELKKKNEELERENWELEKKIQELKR
In words: two-hybrid library CCNG1.

The next assay has as its target T11, 4H687-bH.
T11 chain: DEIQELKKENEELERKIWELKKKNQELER
Nature of the assay: two-hybrid library CCNG1.

A further assay concerns the target T12, 4H883-bH.
T12 chain: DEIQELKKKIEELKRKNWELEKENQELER
In words: two-hybrid library CCNG1.

For another assay, the target named is T13, 4H754-bH.
T13 chain: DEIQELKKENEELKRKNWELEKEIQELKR
Nature of the assay: two-hybrid library CCNG1.

A further assay concerns the target T14, 4H462-bH.
T14 chain: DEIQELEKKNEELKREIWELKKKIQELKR
In words: two-hybrid library CCNG1.

Another assay addresses T15, 4H967-bH.
T15 chain: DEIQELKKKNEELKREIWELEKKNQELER
In words: two-hybrid library CCNG1.

The next assay has as its target T16, 4H3855-bH.
T16 chain: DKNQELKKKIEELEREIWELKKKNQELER
Nature of the assay: two-hybrid library CCNG1.

A further assay deals with T17, 4H3782-bH.
T17 chain: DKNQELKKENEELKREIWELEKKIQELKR
Nature of the assay: two-hybrid library CCNG1.

In a further assay the target is T18, 4H717-bH.
T18 chain: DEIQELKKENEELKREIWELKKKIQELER
Nature of the assay: two-hybrid library CCNG1.

The target in a further assay is T19, 4H953-bH.
T19 chain: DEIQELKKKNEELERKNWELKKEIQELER
In words: two-hybrid library CCNG1.

The target of a further assay is T20, 4H908-bH.
T20 chain: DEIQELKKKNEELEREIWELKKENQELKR
Nature of the assay: two-hybrid library CCNG1.

The next assay deals with T21, 4H3134-AA.
T21 chain: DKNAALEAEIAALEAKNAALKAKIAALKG
Nature of the assay: two-hybrid library CCmax.

The target of another assay is T22, 4H816-AA.
T22 chain: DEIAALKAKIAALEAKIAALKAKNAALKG
In words: two-hybrid library CCmax. To be noted: mean of both orientations.

The target in another assay is T23, 4H3625-AA.
T23 chain: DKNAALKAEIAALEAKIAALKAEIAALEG
Nature of the assay: two-hybrid library CCmax. The settings on record: mean of both orientations.

A further assay concerns the target T24, 4H775-AA.
T24 chain: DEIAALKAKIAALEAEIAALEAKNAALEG
In words: two-hybrid library CCmax. The settings on record: mean of both orientations.

Another assay deals with T25, 4H87-AA.
T25 chain: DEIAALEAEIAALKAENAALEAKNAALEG
In words: two-hybrid library CCmax. The settings on record: mean of both orientations.

The next assay has as its target T26, 4H3409-AA.
T26 chain: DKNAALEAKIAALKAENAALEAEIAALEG
In words: two-hybrid library CCmax. To be noted: mean of both orientations.

Another assay addresses T27, 4H510-AA.
T27 chain: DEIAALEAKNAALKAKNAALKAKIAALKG
In words: two-hybrid library CCmax. The settings on record: mean of both orientations.

Another assay addresses T28, 4H3940-AA.
T28 chain: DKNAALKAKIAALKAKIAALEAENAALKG
Nature of the assay: two-hybrid library CCmax. The settings on record: mean of both orientations.

Another assay has as its target T29, 4H390-AA.
T29 chain: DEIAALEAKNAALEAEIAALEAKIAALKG
Nature of the assay: two-hybrid library CCmax. To be noted: mean of both orientations.

A further assay concerns the target T30, 4H3855-bA.
T30 chain: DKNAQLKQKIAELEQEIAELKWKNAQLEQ
In words: two-hybrid library CCNG1.

Another assay addresses T31, 4H754-bN.
T31 chain: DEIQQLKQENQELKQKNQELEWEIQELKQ
In words: two-hybrid library CCNG1.

A further assay deals with T32, 4H72-bN.
T32 chain: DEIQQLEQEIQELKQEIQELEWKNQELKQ
Nature of the assay: two-hybrid library CCNG1.

A further assay concerns the target T33, 4H953-bN.
T33 chain: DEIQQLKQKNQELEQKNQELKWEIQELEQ
Nature of the assay: two-hybrid library CCNG1.

In the next assay the target is T34, 4H568-bN.
T34 chain: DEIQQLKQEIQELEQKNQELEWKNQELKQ
In words: two-hybrid library CCNG1.

The target in another assay is T35, 4H908-bN.
T35 chain: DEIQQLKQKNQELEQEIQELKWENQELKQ
Nature of the assay: two-hybrid library CCNG1.

In a further assay the target is T36, 4H3843-bN.
T36 chain: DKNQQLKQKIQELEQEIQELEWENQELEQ
In words: two-hybrid library CCNG1.

For another assay, the target named is T37, 4H717-bN.
T37 chain: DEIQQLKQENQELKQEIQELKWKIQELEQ
Nature of the assay: two-hybrid library CCNG1.

For the next assay, the target named is T38, 4H918-bN.
T38 chain: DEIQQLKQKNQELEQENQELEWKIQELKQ
Nature of the assay: two-hybrid library CCNG1.

The next assay addresses T39, 4H883-bN.
T39 chain: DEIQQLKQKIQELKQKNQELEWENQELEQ
Nature of the assay: two-hybrid library CCNG1.

The target in the next assay is T40, 4H454-bN.
T40 chain: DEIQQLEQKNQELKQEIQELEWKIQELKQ
Nature of the assay: two-hybrid library CCNG1.

The target of the next assay is T41, 4H967-bN.
T41 chain: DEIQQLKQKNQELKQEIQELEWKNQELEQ
Nature of the assay: two-hybrid library CCNG1.

A further assay has as its target T42, 4H462-bN.
T42 chain: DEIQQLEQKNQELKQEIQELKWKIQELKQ
Nature of the assay: two-hybrid library CCNG1.

The next assay addresses T43, 4H687-bN.
T43 chain: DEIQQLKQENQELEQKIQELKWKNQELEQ
In words: two-hybrid library CCNG1.

The target of a further assay is T44, 4H3782-bN.
T44 chain: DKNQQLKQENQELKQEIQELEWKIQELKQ
In words: two-hybrid library CCNG1.

For a further assay, the target named is T45, 4H797-bN.
T45 chain: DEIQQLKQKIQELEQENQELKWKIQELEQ
In words: two-hybrid library CCNG1.

Another assay has as its target T46, 4H3855-bN.
T46 chain: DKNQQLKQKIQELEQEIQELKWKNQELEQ
In words: two-hybrid library CCNG1.

A further assay addresses T47, 4H607-bN.
T47 chain: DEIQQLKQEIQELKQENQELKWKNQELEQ
In words: two-hybrid library CCNG1.

In a further assay the target is T48, 4H4001-bN.
T48 chain: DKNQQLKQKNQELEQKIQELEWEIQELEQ
Nature of the assay: two-hybrid library CCNG1.

For the molecule DEIQELEKENEELEREIWELEKKNQELKR [O8-bH], the interaction score amounted to 0.991 with O8-bH and 0.486 with O9-bH.
In the case of DKNQELKKENEELKREIWELEKKIQELKR [4H3782-bH], the interaction score is 1.04 with 4H72-bH; -0.446 with 4H797-bH; 0.164 in the assay with 4H568-bH; 1.75 in the assay with 4H454-bH; 0.943 in the assay with 4H3843-bH; 0.67 with 4H4001-bH. Besides, the interaction score with 4H607-bH was 0.717; with 4H918-bH it was -0.854; in the assay with 4H687-bH it was 0.418; with 4H883-bH it was -0.532; in the assay with 4H754-bH, 0.775; with 4H462-bH, 1.71. Besides, the interaction score with 4H967-bH was -0.136; with 4H3855-bH it was 0.0378; with 4H3782-bH it was 0.738; with 4H717-bH, 0.481; with 4H953-bH it was -0.497; with 4H908-bH, -1.78.
With DKNAALEAEIAALEAKNAALKAKIAALKG [4H3134-AA], the interaction score with 4H3134-AA was -0.475; with 4H816-AA, -0.115; with 4H3625-AA, -0.878; with 4H775-AA, -0.634; with 4H87-AA it was -0.703; in the assay with 4H3409-AA, 1.96. Moreover, the interaction score in the assay with 4H510-AA is -2.21; with 4H3940-AA it was -1.19; with 4H390-AA, -0.0241.
In the case of DKNQELKKKIEELEREIWELEKENQELER [4H3843-bH], the interaction score is -0.557 with 4H72-bH; -0.437 in the assay with 4H797-bH; -1.1 with 4H568-bH; -0.634 with 4H3843-bH; -0.099 in the assay with 4H4001-bH; -2.13 with 4H607-bH. The interaction score was -2.64 with 4H918-bH; -0.585 with 4H687-bH; -0.346 with 4H883-bH; -0.193 in the assay with 4H462-bH; -0.0277 with 4H967-bH; 1.29 in the assay with 4H3855-bA. The molecule further had an interaction score in the assay with 4H953-bH of -0.885.
As for DKNQQLKQENQELKQEIQELEWKIQELKQ [4H3782-bN], the interaction score with 4H754-bN is 0.109; with 4H72-bN it was -0.393; with 4H953-bN it was -0.576; with 4H568-bN it was -0.456; with 4H908-bN, 0.273; with 4H3843-bN, 0.479. Further, the interaction score was -0.43 with 4H717-bN; -0.56 in the assay with 4H918-bN; -1.27 with 4H883-bN; -0.771 with 4H454-bN; -0.314 with 4H967-bN; 0.194 in the assay with 4H462-bN. Moreover, the interaction score in the assay with 4H687-bN is 0.28; with 4H3782-bN it was -1.91; with 4H797-bN, 0.0484; with 4H3855-bN, -1.08; with 4H607-bN, -0.461; with 4H4001-bN, 0.0598.
